Assay [1] deals with T1, Human CD19-his protein (human, UniProt P15391 20-291).
T1 construct: bought protein; also called human CD19 protein; recombinant human CD19-His; not shown: His tag
T1 sequence (looked up): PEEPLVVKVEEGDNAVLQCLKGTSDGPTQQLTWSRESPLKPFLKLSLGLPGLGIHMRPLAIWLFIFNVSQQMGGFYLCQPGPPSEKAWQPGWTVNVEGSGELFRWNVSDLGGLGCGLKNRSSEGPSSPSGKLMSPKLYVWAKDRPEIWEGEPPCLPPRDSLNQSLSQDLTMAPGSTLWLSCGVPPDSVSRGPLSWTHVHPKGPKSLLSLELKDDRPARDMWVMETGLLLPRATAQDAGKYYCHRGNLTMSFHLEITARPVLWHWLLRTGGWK
The assay is described as follows: ELISA, antibody at 0.01 nM.

The target of assay [2] is T1, Human CD19-his protein. The assay is described as follows: ELISA, antibody at 1.00 nM.
For assay [3], the target named is T2, human CD19 exon1-3-his protein (human, UniProt P15391 20-186, limits assumed).
T2 construct: made in HEK293E cells; also called membrane-distal end; not shown: His tag
T2 sequence (looked up): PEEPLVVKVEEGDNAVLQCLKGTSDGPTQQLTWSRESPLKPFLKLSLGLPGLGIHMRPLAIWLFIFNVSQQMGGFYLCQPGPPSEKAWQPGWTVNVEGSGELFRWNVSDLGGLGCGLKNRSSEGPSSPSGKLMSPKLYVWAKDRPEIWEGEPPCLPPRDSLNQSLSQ
The assay is described as follows: ELISA, coated at 2 ug/mL.

Another assay addresses T3, murine CD19 protein (murine, UniProt P25918 17-287, limits assumed).
T3 construct: bought protein; also called commercial murine CD19
T3 sequence (looked up): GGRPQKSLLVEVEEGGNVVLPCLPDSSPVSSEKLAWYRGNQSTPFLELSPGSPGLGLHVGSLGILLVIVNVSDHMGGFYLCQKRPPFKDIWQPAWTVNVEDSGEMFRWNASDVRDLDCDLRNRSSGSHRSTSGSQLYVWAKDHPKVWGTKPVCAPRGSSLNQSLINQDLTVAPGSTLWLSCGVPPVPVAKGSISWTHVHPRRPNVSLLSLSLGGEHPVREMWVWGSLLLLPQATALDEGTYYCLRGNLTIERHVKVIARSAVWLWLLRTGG
The assay is described as follows: ELISA, coated murine CD19. The gist of the method: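 Plates coated overnight at 4° C with recombinant murine or monkey CD19 and blocked with 2% BSA. Chimeric antibodies, serially diluted from 100 nM, bound for 2 h at 37° C. TMB development for 10 min with OD450 read-out.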

The target of assay [4] is T1, Human CD19-his protein. The assay is described as follows: ELISA, antibody at 0.001 nM.
Assay [5] deals with T1, Human CD19-his protein. The assay is described as follows: ELISA, antibody at 0.10 nM.
For assay [6], the target named is T1, Human CD19-his protein. The assay is described as follows: ELISA, antibody at 100 nM.
Assay [7] deals with T1, Human CD19-his protein. The assay is described as follows: ELISA, antibody at 0.0001 nM.
The target in assay [8] is T1, Human CD19-his protein. The assay is described as follows: ELISA on coated human CD19-His.
Assay [9] concerns the target T1, Human CD19-his protein. The assay is described as follows: ELISA, antibody at 10 nM.

B1: F3.64.4 (antibody, human IgG1, V domains shown)
VH: EVQLQQSGPELVKPGASVKISCKASGYTFTDYHINWVKQSHGKSPEWIGDINPNNGGTTYNQKFKDKATLTVDKSSSTAFMELRSLTSEDSAVYYCARFITTVVAWYFDVWGTGTTVTVSS
VL: DIQMTQSPASLSVSVGETVTITCRASENIYSNLAWYQQKQGKSPQLLVYAATNLADGVPSRFSGSGSGTQYSLKINSLQSEDFGNYYCQRFWDTPRTFGGGTKLEIK
notes: human-murine chimeric antibody, human IgG1
As to B1, the OD450 is 0.13 with Human CD19-his protein [1]; 1.06 with Human CD19-his protein [2]; 0.06 with Human CD19-his protein [4]; 0.55 in the assay with Human CD19-his protein [5]; 0.83 with Human CD19-his protein [6]; 0.05 in the assay with Human CD19-his protein [7]. In addition, the OD450 with Human CD19-his protein [9] was 1. Besides, the binding result (in assay [3]; with murine CD19 protein) was “no binding” in each case. Further, in the assay with Human CD19-his protein [8], the half-maximal effective concentration (EC50 (read off the curve)) was about 100 pM.

B2: F3.113.16 (antibody, human IgG1, V domains shown)
VH: QVQLQQPGAELVKPGASVKLSCKASGYTFTNYWMQWVKQRPGQGLEWIGEIDPSDSYINYNQKFKGKATLTADTSSSTAYMQLSSLTYEDSAVYYCARPVTVPWYFDVWGTGTTVTVSS
VL: EIVLTQSPTTMAASPGEKITITCSATSSISSNYLHWYQQKPGFSPKLLIYRTSNLASGVPARFSGSGSGTSYSLTIGTMEAEDVATYYCQQGSAIPRIFTFGSGTKLEIK
notes: as for B1
As for B2, the OD450 turned out to be 0.06 with Human CD19-his protein [1]; 0.26 with Human CD19-his protein [2]; 0.05 with Human CD19-his protein [4]; 0.11 with Human CD19-his protein [5]; 0.38 in the assay with Human CD19-his protein [6]; 0.05 in the assay with Human CD19-his protein [7]. This molecule registered an OD450 with Human CD19-his protein [9] of 0.34. Further, the binding result (in assay [3]; with murine CD19 protein) was “no binding” each time. Besides, the “EC50 (read off the curve)” value in the assay with Human CD19-his protein [8] was about 500 pM.

B3: F3.121.4 (antibody, human IgG1, V domains shown)
VH: QVQLQQPGAELVVPGTSVKLSCKASGYTFTNYWMHWVKQRPGQGLEWIGEIDPSDNYANYNQEFQGKATLTVDKSSSTAYMQLSSLTSDDSAVYYCARHDGYFGALDYWGQGTSVTVSS
VL: EIVLTQSPTTMAASPGEKITITCSASSSISSNYLHWYQQKPGFSPKFLIYRTSNLASGVPARFSGSGSGTSYSLTIGTMEAEDVATYYCQQASSIPRMFTFGSGTKLEIK
notes: human-murine chimeric antibody, human IgG1; also called chimeric antibody F3.121.4
In the case of B3, the OD450 came out at 0.11 in the assay with Human CD19-his protein [1]; 0.88 in the assay with Human CD19-his protein [2]; 0.06 in the assay with Human CD19-his protein [4]; 0.5 in the assay with Human CD19-his protein [5]; 0.82 with Human CD19-his protein [6]; 0.05 with Human CD19-his protein [7]. In addition, the OD450 in the assay with Human CD19-his protein [9] came to 1.04. In addition, the binding result (in assay [3]; in the assay with murine CD19 protein) was “no binding” in each case. Also, the “EC50 (read off the curve)” value in the assay with Human CD19-his protein [8] is about 100 pM.

B4: F3.133.14 (antibody, human IgG1, V domains shown)
VH: QVQLQQPGAELVMPGASVKLSCKASGYTFTNYWMHWVKQRPGQGLEWIGEIDPSDYYANYNQKFKGKATLTVDKSSSTAYMQLSSLTSEDSAVYYCARSHYYANSYNYWGQGTTLTVSS
VL: EIELTQSPTTMAASPGEKITITCSASSSISSDYLHWYQQKPGFSPKLLIYRTSNLASGLPARFSGSGSGTSYSLTIGTMEAEDVATYYCQQGSSVPRMLTFGAGTKLELK
notes: as for B1
Take B4: the OD450 with Human CD19-his protein [1] was 0.12; with Human CD19-his protein [2] it was 1.59; with Human CD19-his protein [4], 0.07; with Human CD19-his protein [5], 0.58; with Human CD19-his protein [6], 1.62; with Human CD19-his protein [7], 0.05. Also, the OD450 with Human CD19-his protein [9] was determined as 1.87. Moreover, the binding result (in assay [3]; with murine CD19 protein) was “no binding” throughout. The “EC50 (read off the curve)” value in the assay with Human CD19-his protein [8] is about 200 pM.

B5: F1-mab003 (antibody, human IgG1, V domains shown)
VH: EVQLQQSGPELVKPGASVKMSCKASGYTFTDYVMHWVRQTPGQGLEWIGYFNPYNDGTNYNEKFKVKATLTSDKSSTTAYMELSSLTSEDSAVYYCARGVYYYGRDFDYWGQGTTLTVSS
VL: DVVLTQTPLSLPVSLGDQASISCRSSQSLENSNGNSYLNWYLQKPGQSPQLLIYRVSNRFSGVLDRFSGSGSGTDFTLKISRVEAEDLGVYFCLQITHVPWTFGGGTKLEIK
notes: as for B1
For the molecule B5, the OD450 with Human CD19-his protein [1] turned out to be 0.28; with Human CD19-his protein [2], 1.58; in the assay with Human CD19-his protein [4], 0.08; with Human CD19-his protein [5], 1.09; in the assay with Human CD19-his protein [6], 1.98; with Human CD19-his protein [7], 0.06. In addition, the OD450 with Human CD19-his protein [9] was found to be 1.72. Also, the binding result (in [3]; with murine CD19 protein) was “no binding” in each case. The “EC50 (read off the curve)” value with Human CD19-his protein [8] was about 70 pM.

B6: F4.21.2 (antibody, human IgG1, V domains shown)
VH: QVQLKQSGPGLVQPSQSLSITCTVSGFSLSTYGVHWVRQSPGRGLEWLGVIWIGGTTDYNAAFISRLTISKDNSRGQVFFKMDSLQANDTAIYYCARKGYYKYDGGYYYAMDYWGQGTSVTVSS
VL: DIQMTQSSSYLSVSLGGRVTITCKASDHINNWLAWYQQKPGNAPWLLISGATSLETGVPSRFSGSGSGKDYTLSISSLQTEDVATYYCQQYWSTPLTFGAGTKLELK
notes: as for B1
For the molecule B6, the OD450 with Human CD19-his protein [1] was determined as 0.29; with Human CD19-his protein [2] it was 1.98; with Human CD19-his protein [4], 0.1; with Human CD19-his protein [5], 1.1; in the assay with Human CD19-his protein [6], 1.9; in the assay with Human CD19-his protein [7], 0.07. The OD450 with Human CD19-his protein [9] was found to be 1.94. The binding result (in assay [3]; with murine CD19 protein) was “no binding” each time. Further, the “EC50 (read off the curve)” value with Human CD19-his protein [8] is about 70 pM.

B7: F4.272.13 (antibody, human IgG1, V domains shown)
VH: QVQLKESGPGLVAPSQSLSITCTVSGFSLTDYGVSWIRQPPGKGLEWLGVIWGSETTFYNSALKSRLSISKDNSKSQLFLQMNSLQADDTAIYYCAKHHYYGGSFSMDYWGQGTSVTVSS
VL: DIQMTQTTSSLSASLGDRVTISCRASQDINNYLNWYQQKPDGTVKFLIYYTSRLHSGVPSRFSGSGSGTDYSLTISDLEQEDIATYFCQQGNTLPYTFGGGTKLEIK
notes: as for B1
Turning to B7, the OD450 with Human CD19-his protein [1] was 0.33; with Human CD19-his protein [2], 2.14; with Human CD19-his protein [4], 0.09; with Human CD19-his protein [5], 1.56; with Human CD19-his protein [6], 2.25; with Human CD19-his protein [7] it was 0.06. For the same molecule, the OD450 in the assay with Human CD19-his protein [9] was found to be 2.14. Also, the binding result (in assay [3]; with murine CD19 protein) was “no binding” each time. Besides, the 50% effective concentration (EC50 (read off the curve)) with Human CD19-his protein [8] is about 40 pM.

B8: F2.15.26 (antibody, human IgG1, V domains shown)
VH: QVQLKESGPGLVAPSQSLSITCTVSGFSLTDYGVSWIRQSPGKGLEWLGVIWGSGDTYYNSVLESRLSINKDNSKNQVFLKMNSLQTDDAAMYFCAKHSYYGGSFAMDYWGQGTSVTVSS
VL: DIQMTQTTSSLSASLGDRVTISCRASQDISNYLNWYQQKPDGTVKLLIYYTSRLHSGVPSRFSGSGSGTDYSLTISNLEQEDIATYFCQQGKTLPWTFGGGTKLEIK
notes: as for B1
Take B8: the OD450 was determined as 0.18 with Human CD19-his protein [1]; 1.3 with Human CD19-his protein [2]; 0.07 in the assay with Human CD19-his protein [4]; 0.8 in the assay with Human CD19-his protein [5]; 1.54 in the assay with Human CD19-his protein [6]; 0.05 in the assay with Human CD19-his protein [7]. In the assay with Human CD19-his protein [9], this molecule registered an OD450 of 1.4. For the same molecule, the binding result (in assay [3]; with murine CD19 protein) was “no binding” throughout. Also, the 50% effective concentration (EC50 (read off the curve)) with Human CD19-his protein [8] was about 90 pM.

B9: F4.18.13 (antibody, human IgG1, V domains shown)
VH: QVQLQQSGPELVKPGASVKISCKASGYAFSSFWMNWVKQRPGEGLEWIGRIYPGDGDTNYNGKFKGKATLTADDSSSTAYMQLSSLTSVDSAVYFCAREVIAAVVTTDFDYWGQGTTLTVSS
VL: DIQMTQTTSSLSASLGDRVTISCRTSQDISNYLNWYLQKPDGTVKLLIYYTSGLHSGVPSRFSGSGSGTDYSLTISNLEPEDIATYFCQQGKTLPYTFGGGTKLEIK
notes: as for B1
Consider B9, for which the OD450 was determined as 0.25 with Human CD19-his protein [1]; 2.01 in the assay with Human CD19-his protein [2]; 0.08 with Human CD19-his protein [4]; 1.32 with Human CD19-his protein [5]; 1.69 with Human CD19-his protein [6]; 0.05 with Human CD19-his protein [7]. In addition, the OD450 with Human CD19-his protein [9] was 1.96. The binding result (in assay [3]; in the assay with murine CD19 protein) was “no binding” in each case. In addition, the “EC50 (read off the curve)” value with Human CD19-his protein [8] is about 50 pM.

(Values after patent US20250042994A1 (HAINAN SIMCERE ZAIMING PHARMACEUTICAL, published 2025).)
